Target: CD33 (UniProt P20138)
Assay: flow cytometry, hybridoma supernatant on EL4-CD33 cells, rat anti-mouse IgG APC

Sequence of UniProt P20138 (P20138 18-364 limits assumed): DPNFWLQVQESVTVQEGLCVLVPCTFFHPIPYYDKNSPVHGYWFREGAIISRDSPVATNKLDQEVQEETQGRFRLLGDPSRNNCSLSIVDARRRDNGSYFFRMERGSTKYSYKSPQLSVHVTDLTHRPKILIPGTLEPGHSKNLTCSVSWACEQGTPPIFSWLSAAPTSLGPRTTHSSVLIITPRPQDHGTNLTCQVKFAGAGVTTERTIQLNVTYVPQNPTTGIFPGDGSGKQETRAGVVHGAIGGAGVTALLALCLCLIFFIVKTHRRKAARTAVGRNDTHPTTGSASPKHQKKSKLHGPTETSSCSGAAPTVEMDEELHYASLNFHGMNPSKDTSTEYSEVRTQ

- CD33/APC+: 52%
B1: 3F5 (antibody, V domains shown)
VH: EVQLQQSGPELVKPGSSVKISCKASGYTFTDYNMDWVKQSHGKSLEWIGTINPNNGGTSYNQKFKGKATLTVDKSSSTAYMELRSLTSEDSAVYYCARKGYGGNYDYFDYWGQGTTLTVSS
VL: DILLTQSPAILSVSPGERVSFSCRASQSIGTSIHWYQQRTNGSPRLLIKYASESISGIPSRFSGSGSGTDFTLSINSVESEDIADYYCQQSNSWPYTFGGGTKLEIK

Reference: patent US20200223930A1
